Experimental data: PMC7525815

Biological target: Fig4-C486S-Citrine (human) (human) (UniProt Q92562)
Assay: co-IP

Sequence of UniProt Q92562 (Q92562 whole entry C486S): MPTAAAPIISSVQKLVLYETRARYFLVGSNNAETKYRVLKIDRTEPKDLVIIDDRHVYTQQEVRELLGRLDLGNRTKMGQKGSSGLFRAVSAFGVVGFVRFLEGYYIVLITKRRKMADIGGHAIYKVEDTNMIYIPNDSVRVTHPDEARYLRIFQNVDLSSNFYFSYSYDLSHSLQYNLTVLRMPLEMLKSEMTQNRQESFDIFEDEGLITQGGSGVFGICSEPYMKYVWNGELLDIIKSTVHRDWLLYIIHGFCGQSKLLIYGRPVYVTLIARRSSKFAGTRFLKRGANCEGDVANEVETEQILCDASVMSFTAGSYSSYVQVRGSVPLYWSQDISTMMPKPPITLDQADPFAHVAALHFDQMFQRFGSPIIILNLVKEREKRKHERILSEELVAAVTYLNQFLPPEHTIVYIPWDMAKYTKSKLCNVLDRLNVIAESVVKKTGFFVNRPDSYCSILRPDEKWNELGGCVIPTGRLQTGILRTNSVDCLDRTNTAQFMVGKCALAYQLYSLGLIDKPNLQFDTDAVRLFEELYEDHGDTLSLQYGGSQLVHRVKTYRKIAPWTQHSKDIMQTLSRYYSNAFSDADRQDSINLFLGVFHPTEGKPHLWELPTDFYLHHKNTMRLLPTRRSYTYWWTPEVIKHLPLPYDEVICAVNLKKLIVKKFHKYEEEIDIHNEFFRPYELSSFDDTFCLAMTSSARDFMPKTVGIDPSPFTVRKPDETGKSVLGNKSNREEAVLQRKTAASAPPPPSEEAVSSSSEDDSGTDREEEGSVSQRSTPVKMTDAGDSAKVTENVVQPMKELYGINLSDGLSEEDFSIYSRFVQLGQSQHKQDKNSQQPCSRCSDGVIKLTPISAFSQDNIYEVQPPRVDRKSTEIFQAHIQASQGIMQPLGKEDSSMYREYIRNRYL

Substance PIKfyve, Q9Y2I7 1-2098 has a fold PIKfyve association over wild-type Fig4 of 9.27 fold.
